According to the supplement of paper PMC5998384:

Tests used:
HeLa Kyoto [1] = test: thermal stability score vs G1/S (z-score of summed log2 fold changes over temperatures); higher = more thermally stable than in G1/S
HeLa Kyoto [2] = test: solubility change mitosis vs G1/S (difference of NP-40 vs SDS log2 ratios) (log2 ratio difference); higher = more soluble in mitosis
HeLa Kyoto [3] = test: melting temperature (median over replicates), in situ; higher = more thermally stable
HeLa Kyoto [4] = test: solubility in G1/S (NP-40 vs SDS abundance) (log2 ratio); higher = more soluble; conditions: cell cycle stage: G1/S
[5] = cell cycle stage: early G1 (4.5 h after nocodazole release)
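Wherever melting temperature (median over replicates), in situ is given: HeLa Kyoto cells synchronized by double thymidine or nocodazole block, proteins quantified by TMT10plex mass spectrometry, three independent biological replicates.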
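Wherever solubility change mitosis vs G1/S (difference of NP-40 vs SDS log2 ratios) is given: synchronized HeLa Kyoto cells (double thymidine block for G1/S, nocodazole release for mitosis), protein amounts in NP-40 versus SDS lysates quantified by mass spectrometry, three biological replicates.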
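Wherever solubility in G1/S (NP-40 vs SDS abundance) is given: HeLa Kyoto cells arrested at G1/S by double thymidine block, proteins quantified by TMT10plex mass spectrometry in mild NP-40 versus SDS extracts, three biological replicates.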
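Wherever thermal stability score vs G1/S (z-score of summed log2 fold changes over temperatures) is given: synchronized HeLa Kyoto cells, proteins quantified by TMT10plex mass spectrometry, three biological replicates, mitosis taken 0.5 h after nocodazole release, G1/S directly after double thymidine block.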

In the case of “MASGSGDSVTRRSVASQFFTQEEGPGIDGMTTSERVVDLLNQAALITNDSKITVLKQVQELIINKDPTLLDNFLDEIIAFQADKSIEVRKFVIGFIEEACKRDIELLLKLIANLNMLLRDENVNVVKKAILTMTQLYKVALQWMVKSRVISELQEACWDMVSAMAGDIILLLDSDNDGIRTHAIKFVEGLIVTLSPRMADSEIPRRQEHDISLDRIPRDHPYIQYNVLWEEGKAALEQLLKFMVHPAISSINLTTALGSLANIARQRPMFMSEVIQAYETLHANLPPTLAKSQVSSVRKNLKLHLLSVLKHPASLEFQAQITTLLVDLGTPQAEIARNMPSSKDTRKRPRDDSDSTLKKMKLEPNLGEDDEDKDLEPGPSGTSKASAQISGQSDTDITAEFLQPLLTPDNVANLVLISMVYLPEAMPASFQAIYTPVESAGTEAQIKHLARLMATQMTAAGLGPGVEQTKQCKEEPKEEKVVKTESVLIKRRLSAQGQAISVVGSLSSMSPLEEEAPQAKRRPEPIIPVTQPRLAGAGGRKKIFRLSDVLKPLTDAQVEAMKLGAVKRILRAEKAVACSGAAQVRIKILASLVTQFNSGLKAEVLSFILEDVRARLDLAFAWLYQEYNAYLAAGASGSLDKYEDCLIRLLSGLQEKPDQKDGIFTKVVLEAPLITESALEVVRKYCEDESRTYLGMSTLRDLIFKRPSRQFQYLHVLLDLSSHEKDKVRSQALLFIKRMYEKEQLREYVEKFALNYLQLLVHPNPPSVLFGADKDTEVAAPWTEETVKQCLYLYLALLPQNHKLIHELAAVYTEAIADIKRTVLRVIEQPIRGMGMNSPELLLLVENCPKGAETLVTRCLHSLTDKVPPSPELVKRVRDLYHKRLPDVRFLIPVLNGLEKKEVIQALPKLIKLNPIVVKEVFNRLLGTQHGEGNSALSPLNPGELLIALHNIDSVKCDMKSIIKATNLCFAERNVYTSEVLAVVMQQLMEQSPLPMLLMRTVIQSLTMYPRLGGFVMNILSRLIMKQVWKYPKVWEGFIKCCQRTKPQSFQVILQLPPQQLGAVFDKCPELREPLLAHVRSFTPHQQAHIPNSIMTILEASGKQEPEAKEAPAGPLEEDDLEPLTLAPAPAPRPPQDLIGLRLAQEKALKRQLEEEQKLKPGGVGAPSSSSPSPSPSARPGPPPSEEAMDFREEGPECETPGIFISMDDDSGLTEAALLDSSLEGPLPKETAAGGLTLKEERSPQTLAPVGEDAMKTPSPAAEDAREPEAKGNS [SYMPK]”, the thermal stability score (HeLa Kyoto [1]; [5]) is reported as 1.75, the thermal stability score (HeLa Kyoto [1]; cell cycle stage: mitosis) is reported as 4.2 and the “solubility change mitosis (log2)” value (HeLa Kyoto [2]) is reported as -0.0648. The melting temperature (HeLa Kyoto [3]; cell cycle stage: G1/S) was 48.1 °C, the melting temperature (HeLa Kyoto [3]; cell cycle stage: mitosis) was 49.1 °C and the “solubility in G1/S (log2)” value (HeLa Kyoto [4]) was 0.0291.
For “MASGTTTTAVKIGIIGGTGLDDPEILEGRTEKYVDTPFGKPSDALILGKIKNVDCVLLARHGRQHTIMPSKVNYQANIWALKEEGCTHVIVTTACGSLREEIQPGDIVIIDQFIDRTTMRPQSFYDGSHSCARGVCHIPMAEPFCPKTREVLIETAKKLGLRCHSKGTMVTIEGPRFSSRAESFMFRTWGADVINMTTVPEVVLAKEAGICYASIAMATDYDCWKEHEEAVSVDRVLKTLKENANKAKSLLLTTIPQIGSTEWSETLHNLKNMAQFSVLLPRH [MTAP]”, the thermal stability score (HeLa Kyoto [1]; [5]) was -1.8, the thermal stability score (HeLa Kyoto [1]; cell cycle stage: mitosis) was -2.68 and the “solubility change mitosis (log2)” value (HeLa Kyoto [2]) was -0.0344. For the same sequence, the melting temperature (HeLa Kyoto [3]; cell cycle stage: G1/S) was 60 °C, the melting temperature (HeLa Kyoto [3]; cell cycle stage: mitosis) was 60.5 °C and the “solubility in G1/S (log2)” value (HeLa Kyoto [4]) was 0.254.
With “MASILRSPQALQLTLALIKPDAVAHPLILEAVHQQILSNKFLIVRMRELLWRKEDCQRFYREHEGRFFYQRLVEFMASGPIRAYILAHKDAIQLWRTLMGPTRVFRARHVAPDSIRGSFGLTDTRNTTHGSDSVVSASREIAAFFPDFSEQRWYEEEEPQLRCGPVCYSPEGGVHYVAGTGGLGPA [NME6]” the thermal stability score (HeLa Kyoto [1]; [5]) was -2.16, the thermal stability score (HeLa Kyoto [1]; cell cycle stage: mitosis) was -1.08 and the “solubility change mitosis (log2)” value (HeLa Kyoto [2]) was 0.636. For the same sequence, the melting temperature (HeLa Kyoto [3]; cell cycle stage: G1/S) was 51.3 °C, the melting temperature (HeLa Kyoto [3]; cell cycle stage: mitosis) was 55.2 °C and the “solubility in G1/S (log2)” value (HeLa Kyoto [4]) was 0.31.
“MASIMEGPLSKWTNVMKGWQYRWFVLDYNAGLLSYYTSKDKMMRGSRRGCVRLRGAVIGIDDEDDSTFTITVDQKTFHFQARDADEREKWIHALEETILRHTLQLQGLDSGFVPSVQDFDKKLTEADAYLQILIEQLKLFDDKLQNCKEDEQRKKIETLKETTNSMVESIKHCIVLLQIAKDQSNAEKHADGMISTINPVDAIYQPSPLEPVISTMPSQTVLPPEPVQLCKSEQRPSSLPVGPVLATLGHHQTPTPNSTGSGHSPPSSSLTSPSHVNLSPNTVPEFSYSSSEDEFYDADEFHQSGSSPKRLIDSSGSASVLTHSSSGNSLKRPDTTESLNSSLSNGTSDADLFDSHDDRDDDAEAGSVEEHKSVIMHLLSQVRLGMDLTKVVLPTFILERRSLLEMYADFFAHPDLFVSISDQKDPKDRMVQVVKWYLSAFHAGRKGSVAKKPYNPILGEIFQCHWTLPNDTEENTELVSEGPVPWVSKNSVTFVAEQVSHHPPISAFYAECFNKKIQFNAHIWTKSKFLGMSIGVHNIGQGCVSCLDYDEHYILTFPNGYGRSILTVPWVELGGECNINCSKTGYSANIIFHTKPFYGGKKHRITAEIFSPNDKKSFCSIEGEWNGVMYAKYATGENTVFVDTKKLPIIKKKVRKLEDQNEYESRSLWKDVTFNLKIRDIDAATEAKHRLEERQRAEARERKEKEIQWETRLFHEDGECWVYDEPLLKRLGAAKH [OSBPL9]” was tested, and the thermal stability score (HeLa Kyoto [1]; [5]) was 0.00752, the thermal stability score (HeLa Kyoto [1]; cell cycle stage: mitosis) was 0.954 and the “solubility change mitosis (log2)” value (HeLa Kyoto [2]) was -0.142. The melting temperature (HeLa Kyoto [3]; cell cycle stage: G1/S) was 48.7 °C, the melting temperature (HeLa Kyoto [3]; cell cycle stage: mitosis) was 49.2 °C and the “solubility in G1/S (log2)” value (HeLa Kyoto [4]) was -0.0574.
